PMC10094722, “How Single Amino Acid Substitutions Can Disrupt a Protein Hetero-Dimer Interface: Computational and Experimental Studies of the LigAB Dioxygenase from Sphingobium sp. Strain SYK-6” (International Journal of Molecular Sciences, 2023)
Values joined by “and” are separate entries in the source; they are usually repeats but may differ in a detail not shown here. Identical values can stand only once.

Key:
[1] = molecular target: T1, LigA, alpha subunit of protocatechuate 4,5-dioxygenase (LigAB), wild-type (Sphingobium sp. strain SYK-6, UniProt P22635 1-139); assay: pull-down; co-purification of untagged LigB with His6-LigA on HisPur Ni-NTA resin from lysate of co-expressing E. coli, aerobic; 50 mM HEPES, 300 mM NaCl, pH 8.0, imidazole step gradient (62.5, 125, 250 mM); fractions on SDS-PAGE, Coomassie, quantified with ImageQuant; conditions: partners not purified
T1 construct: Protocatechuate 4,5-dioxygenase alpha chain (LigA), Sphingobium sp. strain SYK-6; 17.711 kDa with the His6-tag; also called α subunit; source: E. coli BL21, pET15b, co-expressed with LigB; in lysate and purified (Ni-NTA); not shown: His6, N-terminal, kept
T1 sequence: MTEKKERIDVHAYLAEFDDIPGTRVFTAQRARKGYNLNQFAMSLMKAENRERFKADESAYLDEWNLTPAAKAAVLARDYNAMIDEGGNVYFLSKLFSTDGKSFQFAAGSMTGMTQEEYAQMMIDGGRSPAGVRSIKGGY

[2] = molecular target: T2, LigA F103A (Sphingobium sp. strain SYK-6, UniProt P22635 1-139, F103A); assay: as above; conditions: partners not purified
T2 construct: Protocatechuate 4,5-dioxygenase alpha chain (LigA), Sphingobium sp. strain SYK-6, with F103A; Site-directed mutagenesis as described by Barry et al; also called F103α to alanine; source: E. coli BL21, pET15b, co-expressed with LigB; in lysate and purified (Ni-NTA); not shown: His6, N-terminal, kept
T2 sequence: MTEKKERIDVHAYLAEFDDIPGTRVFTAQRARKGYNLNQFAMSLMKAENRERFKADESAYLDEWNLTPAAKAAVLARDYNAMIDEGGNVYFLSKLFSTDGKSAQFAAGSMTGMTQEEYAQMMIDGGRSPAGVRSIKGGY

[3] = molecular target: T3, LigA F103V (Sphingobium sp. strain SYK-6, UniProt P22635 1-139, F103V); assay: as above; conditions: partners not purified
T3 construct: Protocatechuate 4,5-dioxygenase alpha chain (LigA), Sphingobium sp. strain SYK-6, with F103V; Site-directed mutagenesis as described by Barry et al; source: E. coli BL21, pET15b, co-expressed with LigB; in lysate; not shown: His6, N-terminal, kept
T3 sequence: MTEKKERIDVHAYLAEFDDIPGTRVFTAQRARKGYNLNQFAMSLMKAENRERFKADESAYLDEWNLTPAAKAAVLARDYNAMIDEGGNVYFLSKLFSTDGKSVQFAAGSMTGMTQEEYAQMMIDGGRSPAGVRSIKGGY

[4] = molecular target: T4, LigA F103L (Sphingobium sp. strain SYK-6, UniProt P22635 1-139, F103L); assay: as above; conditions: partners not purified
T4 construct: Protocatechuate 4,5-dioxygenase alpha chain (LigA), Sphingobium sp. strain SYK-6, with F103L; Site-directed mutagenesis as described by Barry et al; source: E. coli BL21, pET15b, co-expressed with LigB; in lysate; not shown: His6, N-terminal, kept
T4 sequence: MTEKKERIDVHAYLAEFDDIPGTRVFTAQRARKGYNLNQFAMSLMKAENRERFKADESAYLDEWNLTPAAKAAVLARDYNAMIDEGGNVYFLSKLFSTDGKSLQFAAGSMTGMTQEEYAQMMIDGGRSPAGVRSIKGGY

[5] = molecular target: T5, LigA F103S (Sphingobium sp. strain SYK-6, UniProt P22635 1-139, F103S); assay: as above; conditions: partners not purified
T5 construct: Protocatechuate 4,5-dioxygenase alpha chain (LigA), Sphingobium sp. strain SYK-6, with F103S; Site-directed mutagenesis as described by Barry et al; source: E. coli BL21, pET15b, co-expressed with LigB; in lysate and purified (Ni-NTA); not shown: His6, N-terminal, kept
T5 sequence: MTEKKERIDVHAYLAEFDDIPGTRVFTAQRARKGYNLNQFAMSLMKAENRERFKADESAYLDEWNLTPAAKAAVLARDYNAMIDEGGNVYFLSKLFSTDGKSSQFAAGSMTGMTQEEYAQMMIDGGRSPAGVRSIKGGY

[6] = molecular target: T6, LigA F103T (Sphingobium sp. strain SYK-6, UniProt P22635 1-139, F103T); assay: as above; conditions: partners not purified
T6 construct: Protocatechuate 4,5-dioxygenase alpha chain (LigA), Sphingobium sp. strain SYK-6, with F103T; Site-directed mutagenesis as described by Barry et al; source: E. coli BL21, pET15b, co-expressed with LigB; in lysate; not shown: His6, N-terminal, kept
T6 sequence: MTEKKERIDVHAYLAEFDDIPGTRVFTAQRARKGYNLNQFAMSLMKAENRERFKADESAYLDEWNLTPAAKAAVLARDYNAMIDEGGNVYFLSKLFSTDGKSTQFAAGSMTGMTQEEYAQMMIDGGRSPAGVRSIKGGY

[7] = molecular target: T7, LigA F103H (Sphingobium sp. strain SYK-6, UniProt P22635 1-139, F103H); assay: as above; conditions: partners not purified
T7 construct: Protocatechuate 4,5-dioxygenase alpha chain (LigA), Sphingobium sp. strain SYK-6, with F103H; Site-directed mutagenesis as described by Barry et al; source: E. coli BL21, pET15b, co-expressed with LigB; in lysate; not shown: His6, N-terminal, kept
T7 sequence: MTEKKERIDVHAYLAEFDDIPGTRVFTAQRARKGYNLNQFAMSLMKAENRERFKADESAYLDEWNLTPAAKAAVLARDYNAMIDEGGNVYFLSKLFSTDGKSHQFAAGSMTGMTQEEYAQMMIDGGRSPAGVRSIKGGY

[8] = molecular target: the molecule itself; assay: native gel or EMSA; 10% native polyacrylamide gel of purified LigAB (wild-type, F103A, F103S), Coomassie stained, 6.25 to 50 ug protein per lane; masses calculated from the bands

B1: LigB, beta subunit of protocatechuate 4,5-dioxygenase (LigAB) (natural protein, Sphingobium sp. strain SYK-6)
chain: MARVTTGITSSHIPALGAAIQTGTSDNDYWGPVFKGYQPIRDWIKQPGNMPDVVILVYNDHASAFDMNIIPTFAIGCAETFKPADEGWGPRPVPDVKGHPDLAWHIAQSLILDEFDMTIMNQMDVDHGCTVPLSMIFGEPEEWPCKVIPFPVNVVTYPPPSGKRCFALGDSIRAAVESFPEDLNVHVWGTGGMSHQLQGPRAGLINKEFDLNFIDKLISDPEELSKMPHIQYLRESGSEGVELVMWLIMRGALPEKVRDLYTFYHIPASNTALGAMILQPEETAGTPLEPRKVMSGHSLAQA
notes: Protocatechuate 4,5-dioxygenase beta chain (LigB), Sphingobium sp. strain SYK-6; 33.292 kDa; untagged; also called β subunit; source: E. coli BL21, pET15b, co-expressed with His6-LigA (wild-type or mutant); in lysate and co-purified (Ni-NTA)
- α:β ratio of abundances in elution fractions E3-1 to E3-5 [1]: 1.08
- β:α ratio of abundances in elution fractions E3-1 to E3-5 [1]: 0.928
- α:β ratio of abundances in elution fractions E3-1 to E3-5 [2]: 0.817
- β:α ratio of abundances in elution fractions E3-1 to E3-5 [2]: 1.22
- α:β ratio of abundances in elution fractions E3-1 to E3-5 [3]: 0.79
- β:α ratio of abundances in elution fractions E3-1 to E3-5 [3]: 1.27
- α:β ratio of abundances in elution fractions E3-1 to E3-5 [4]: 0.879
- β:α ratio of abundances in elution fractions E3-1 to E3-5 [4]: 1.14
- α:β ratio of abundances in elution fractions E3-1 to E3-5 [5]: 1.04
- β:α ratio of abundances in elution fractions E3-1 to E3-5 [5]: 0.959
- α:β ratio of abundances in elution fractions E3-1 to E3-5 [6]: 1.64
- β:α ratio of abundances in elution fractions E3-1 to E3-5 [6]: 0.608
- α:β ratio of abundances in elution fractions E3-1 to E3-5 [7]: 2.19
- β:α ratio of abundances in elution fractions E3-1 to E3-5 [7]: 0.456

B2: LigAB α/β heterodimer, wild-type (protocatechuate 4,5-dioxygenase) (complex, Sphingobium sp. strain SYK-6)
chain 1: MTEKKERIDVHAYLAEFDDIPGTRVFTAQRARKGYNLNQFAMSLMKAENRERFKADESAYLDEWNLTPAAKAAVLARDYNAMIDEGGNVYFLSKLFSTDGKSFQFAAGSMTGMTQEEYAQMMIDGGRSPAGVRSIKGGY
chain 2: MARVTTGITSSHIPALGAAIQTGTSDNDYWGPVFKGYQPIRDWIKQPGNMPDVVILVYNDHASAFDMNIIPTFAIGCAETFKPADEGWGPRPVPDVKGHPDLAWHIAQSLILDEFDMTIMNQMDVDHGCTVPLSMIFGEPEEWPCKVIPFPVNVVTYPPPSGKRCFALGDSIRAAVESFPEDLNVHVWGTGGMSHQLQGPRAGLINKEFDLNFIDKLISDPEELSKMPHIQYLRESGSEGVELVMWLIMRGALPEKVRDLYTFYHIPASNTALGAMILQPEETAGTPLEPRKVMSGHSLAQA
notes: Protocatechuate 4,5-dioxygenase alpha chain (LigA), Sphingobium sp. strain SYK-6; as m1; Protocatechuate 4,5-dioxygenase beta chain (LigB), Sphingobium sp. strain SYK-6; as m2; The heterodimer as the unit that associates with itself in the native gel; also called wild-type LigAB; WT-LigAB; source: E. coli BL21, pET15b, co-expressed, purified (Ni-NTA); not shown: His6, N-terminal, kept
- stoichiometry N [8]: 3

B3: LigAB α/β heterodimer with LigA F103S (complex, Sphingobium sp. strain SYK-6)
chain 1: MTEKKERIDVHAYLAEFDDIPGTRVFTAQRARKGYNLNQFAMSLMKAENRERFKADESAYLDEWNLTPAAKAAVLARDYNAMIDEGGNVYFLSKLFSTDGKSSQFAAGSMTGMTQEEYAQMMIDGGRSPAGVRSIKGGY
chain 2: MARVTTGITSSHIPALGAAIQTGTSDNDYWGPVFKGYQPIRDWIKQPGNMPDVVILVYNDHASAFDMNIIPTFAIGCAETFKPADEGWGPRPVPDVKGHPDLAWHIAQSLILDEFDMTIMNQMDVDHGCTVPLSMIFGEPEEWPCKVIPFPVNVVTYPPPSGKRCFALGDSIRAAVESFPEDLNVHVWGTGGMSHQLQGPRAGLINKEFDLNFIDKLISDPEELSKMPHIQYLRESGSEGVELVMWLIMRGALPEKVRDLYTFYHIPASNTALGAMILQPEETAGTPLEPRKVMSGHSLAQA
notes: Protocatechuate 4,5-dioxygenase alpha chain (LigA), Sphingobium sp. strain SYK-6, with F103S; as m6; Protocatechuate 4,5-dioxygenase beta chain (LigB), Sphingobium sp. strain SYK-6; as m2; The heterodimer as the unit that associates with itself in the native gel; also called F103S variant; source: E. coli BL21, pET15b, co-expressed, purified (Ni-NTA); not shown: His6, N-terminal, kept
- stoichiometry N [8]: 3 and 6

B4: LigAB α/β heterodimer with LigA F103A (complex, Sphingobium sp. strain SYK-6)
chain 1: MTEKKERIDVHAYLAEFDDIPGTRVFTAQRARKGYNLNQFAMSLMKAENRERFKADESAYLDEWNLTPAAKAAVLARDYNAMIDEGGNVYFLSKLFSTDGKSAQFAAGSMTGMTQEEYAQMMIDGGRSPAGVRSIKGGY
chain 2: MARVTTGITSSHIPALGAAIQTGTSDNDYWGPVFKGYQPIRDWIKQPGNMPDVVILVYNDHASAFDMNIIPTFAIGCAETFKPADEGWGPRPVPDVKGHPDLAWHIAQSLILDEFDMTIMNQMDVDHGCTVPLSMIFGEPEEWPCKVIPFPVNVVTYPPPSGKRCFALGDSIRAAVESFPEDLNVHVWGTGGMSHQLQGPRAGLINKEFDLNFIDKLISDPEELSKMPHIQYLRESGSEGVELVMWLIMRGALPEKVRDLYTFYHIPASNTALGAMILQPEETAGTPLEPRKVMSGHSLAQA
notes: Protocatechuate 4,5-dioxygenase alpha chain (LigA), Sphingobium sp. strain SYK-6, with F103A; as m3; Protocatechuate 4,5-dioxygenase beta chain (LigB), Sphingobium sp. strain SYK-6; as m2; The heterodimer as the unit that associates with itself in the native gel; also called F103A mutant enzyme; source: E. coli BL21, pET15b, co-expressed, purified (Ni-NTA); not shown: His6, N-terminal, kept
- binding result [8]: binds
